Results taken from paper PMC4737498, “An Anti-proteome Nanobody Library Approach Yields a Specific Immunoassay for Trypanosoma congolense Diagnosis Targeting Glycosomal Aldolase” (PLoS Neglected Tropical Diseases, 2016).

Tests used:
Conditions in all cases: one partner purified
[1] = molecular target: T1, recombinant T. congolense glycosomal aldolase (Trypanosoma congolense IL3000, UniProt G0UWE7); assay: ELISA; homologous sandwich (Nb474H-Nb474B), capture step: crude soluble proteins of E. coli expressing recombinant aldolase (10 μg/well) on coated Nb474H
T1 construct: His6-tag with a proximal tobacco etch virus cleavage site; Construct synthesised by GenScript; also called TcoALD; recombinant TcoALD; source: E. coli BL21(DE3), pET-21b(+), in crude lysate (18 h post-induction)

[2] = molecular target: T2, native T. congolense glycosomal fructose-1,6-bisphosphate aldolase (Trypanosoma congolense (TC13 soluble …, UniProt G0UWE7)); assay: ELISA; homologous sandwich Nb474-ELISA, capture step: Nb474H coated on Nunc plate (0.02 μg/ml in PBS, overnight 4°C), T. congolense soluble proteome, infected sera or secretome added 1 h at 22°C
T2 construct: glycosomal fructose-1,6-bisphosphate aldolase of Trypanosoma congolense, UniProtKB G0UWE7; band at about 40 kDa identified by mass spectrometry; Samples came from different strains (TC13, IL3000 and others); also called TcoALD; native TcoALD; source: endogenous, T. congolense soluble proteome (TC13), sera of T. congolense infected mice, T. congolense IL3000 secretome; in fixed T. congolense …

[3] = molecular target: T1, recombinant T. congolense glycosomal …; assay: ELISA; homologous sandwich (Nb474H-Nb474B), detection step: Nb474B on recombinant aldolase captured from crude E. coli lysate by coated Nb474H
[4] = molecular target: T2, native T. congolense glycosomal …; assay: ELISA; homologous sandwich Nb474-ELISA, detection step: Nb474B (0.02 μg/ml, 1 h at 22°C) on antigen captured from T. congolense samples by coated Nb474H; strep-HRP and TMB

| Binder | binding result [1] | binding result [2] | binding result [3] | binding result [4] |
| --- | --- | --- | --- | --- |
| Nb474H (His6-tagged Nanobody 474) (VHH, from an alpaca immunised with T. congolense TC13 soluble proteome; also called capturing Nb; His6-tag Nb; source: E. coli WK6 (pHEN6c), periplasmic extract, purified (His-Select Nickel, size exclusion chromatography)) VHH: QVQLQESGGGLVQPGGSLRLSCAASETALTYYAIGWFRQAPGKEREGVSCISRINSGSGARTDYADSVKGRFTISRDDAKNTVTLQMNSLEPEDTARYYCALDTTDRYDSANGRYYCTISSDTYDYWGQGTQVTVSS | binds | binds |  |  |
| Nb474B (biotinylated Nanobody 474) (VHH, same Nb as m1; also called detecting Nb; detection Nb) VHH: QVQLQESGGGLVQPGGSLRLSCAASETALTYYAIGWFRQAPGKEREGVSCISRINSGSGARTDYADSVKGRFTISRDDAKNTVTLQMNSLEPEDTARYYCALDTTDRYDSANGRYYCTISSDTYDYWGQGTQVTVSS |  |  | binds | binds |
